{"source": "paper PMC7839234", "format_in_all_cases": "cell-based, Homo sapiens", "details_in_all_cases": "sodium (lithium also drives uptake)", "key": {"[1]": {"test_system": "C[N+](C)(C)C[C@H](O)CC(=O)[O-]", "assay": "radiolabelled uptake kinetics"}, "[2]": {"test_system": "C[N+](C)(C)[C@@H](Cc1c[nH]c(=S)[nH]1)C(=O)[O-]", "assay": "radiolabelled uptake kinetics in transfected HEK293 Flp-In cells"}, "[3]": {"test_system": "NCCC(=O)N[C@@H](Cc1cnc[nH]1)C(=O)O", "assay": "radiolabelled uptake kinetics in transfected HEK293 Flp-In cells"}, "CN(CC(=O)O)C(=N)N": {"test_system": "CN(CC(=O)O)C(=N)N", "assay": "radiolabelled uptake kinetics in transfected HEK293 Flp-In cells"}}}
{"substance": "SLC22A15 (Homo sapiens)", "values": [{"measurement": "Km", "setting": "[1]", "result": "99 ± 94", "unit": "µM"}, {"measurement": "Km", "setting": "[2]", "result": "354 ± 95", "unit": "µM"}, {"measurement": "Km", "setting": "[3]", "result": "510 ± 175", "unit": "µM"}, {"measurement": "Km", "setting": "CN(CC(=O)O)C(=N)N", "result": "291 ± 124", "unit": "µM"}]}
